PMC2033760, “Interleukin 1 modulates growth of human renal carcinoma cells in vitro” (British Journal of Cancer, 1995)

Target: T1, IL-1 receptor type I (human (endogenous in A-498), UniProt P14778 18-569)
T1 construct: In the functional row on Caki-2 cells the endogenous receptor of those cells is meant; it was not detected there directly; also called IL-1 receptor type I (80 kDa); source: endogenous, on A-498 cells
T1 sequence (looked up): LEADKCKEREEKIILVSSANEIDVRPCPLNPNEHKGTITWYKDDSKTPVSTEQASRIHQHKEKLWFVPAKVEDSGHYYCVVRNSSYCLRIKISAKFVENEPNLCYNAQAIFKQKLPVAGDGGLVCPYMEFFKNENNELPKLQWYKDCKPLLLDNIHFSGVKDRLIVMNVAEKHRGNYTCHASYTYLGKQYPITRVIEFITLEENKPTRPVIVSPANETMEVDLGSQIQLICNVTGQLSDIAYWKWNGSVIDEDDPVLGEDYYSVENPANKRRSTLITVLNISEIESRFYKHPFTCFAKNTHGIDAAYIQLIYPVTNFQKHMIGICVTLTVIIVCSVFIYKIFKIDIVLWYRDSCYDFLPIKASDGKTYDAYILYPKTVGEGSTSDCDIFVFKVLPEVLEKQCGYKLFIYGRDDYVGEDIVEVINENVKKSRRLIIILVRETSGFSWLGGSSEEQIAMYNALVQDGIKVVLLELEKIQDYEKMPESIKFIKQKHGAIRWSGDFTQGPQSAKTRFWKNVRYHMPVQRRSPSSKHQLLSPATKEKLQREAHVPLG
Experiment: radioligand binding; [125I]IL-1 alpha at increasing concentrations (direct) or at 80 pM with increasing unlabelled IL-1 alpha (competition) on subconfluent A-498 cells in 24-well plates; cells washed with binding medium pH 3.0 for 30 s beforehand; binding medium with 20 mM HEPES pH 7.0; 3 h at 4 C; Scatchard analysis, two classes of binding sites
Details: one partner purified

- KD of the high-affinity sites: 0.045 nM
- KD of the low-affinity sites: 1.3 nM
B1: [125I]IL-1 alpha (ligand, UniProt P01583 113-271, looked up)
chain: SAPFSFLSNVKYNFMRIIKYEFILNDALNQSIIRANDQYLTAAALHNLDEAVKFDMGAYKSSKDDAKITVILRISKTQLYVTAQDEDQPVLLKEMPEIPKTITGSETNLLFFWETHGTKNYFTSVAHPNLFIATKQDYWVCLAGGPPSITDFQILENQA
modifications: 125I label (radioiodinated)
notes: interleukin 1 alpha, the 17 kDa form as printed; also called radiolabelled interleukin 1 alpha; source: bought: Amersham-Buchler
